Where two headings read alike, the source gives them in different places.
What was measured:
Test in all cases: cell-based or functional assay
[1] = molecular target: TSHR with Thr257 mutated to Ala, expressed in CHO cells (human) (UniProt P16473)
[2] = molecular target: wild type TSHR (human TSH receptor) expressed in CHO cells (human) (UniProt P16473)
[3] = molecular target: TSHR with Lys183 mutated to Asp expressed in CHO cells (human) (UniProt P16473)
[4] = molecular target: TSHR with Lys58 mutated to Ala expressed in CHO cells (human) (UniProt P16473)
[5] = molecular target: wild type TSHR expressed in CHO cells (human) (UniProt P16473)
[6] = molecular target: TSHR with Lys183 mutated to Ala expressed in CHO cells (human) (UniProt P16473)
[7] = molecular target: TSHR with Lys250 mutated to Ala (expressed in CHO cells) (human) (UniProt P16473)
[8] = molecular target: TSHR with Arg255 mutated to Ala, expressed in CHO cells (human) (UniProt P16473)
[9] = molecular target: wild type TSHR (human TSH receptor) expressed in CHO cells (human) (UniProt P16473); remark: listed apart in the source
[10] = molecular target: TSHR with Asp203 mutated to Ala expressed in CHO cells (human) (UniProt P16473)
[11] = molecular target: TSHR with Glu178 mutated to Ala expressed in CHO cells (human) (UniProt P16473)
[12] = molecular target: TSHR with Trp258 mutated to Ala, expressed in CHO cells (human) (UniProt P16473)
[13] = molecular target: wild type TSHR (human TSH receptor) expressed in CHO cells (human) (UniProt P16473); remark: listed apart in the source
[14] = molecular target: wild type TSHR expressed in CHO cells (human) (UniProt P16473); remark: listed apart in the source
[15] = molecular target: TSHR with Tyr82 mutated to Ala expressed in CHO cells (human) (UniProt P16473)
[16] = molecular target: wild type TSHR expressed in CHO cells (human) (UniProt P16473); remark: listed apart in the source
[17] = molecular target: TSHR with Arg80 mutated to Ala expressed in CHO cells (human) (UniProt P16473)
[18] = molecular target: wild type TSHR expressed in CHO cells (human) (UniProt P16473); remark: listed apart in the source
[19] = molecular target: human TSHR with Glu251 mutated to Ala expressed in CHO cells (human) (UniProt P16473)

- % inhibition of TSH stimulation; TSH (2), run at the end of assay [1]: 8%
- Cyclic AMP produced; TSH 3 ng/mL [1]: 93.2 pmol/mL
- Cyclic AMP produced; TSH (2) 3 ng/mL, run at the end of assay [1]: 85.4 pmol/mL
- Mutated/wild type (%) of cyclic AMP produced; TSH 3 ng/mL [1]: 141%
- Cyclic AMP produced; TSH 3 ng/mL [2]: 66.1 pmol/mL
- Cyclic AMP produced; TSH (2) 3 ng/mL, run at the end of assay [2]: 93 pmol/mL
- % inhibition of TSH stimulation; TSH (2), run at the end of assay [3]: 20%
- Cyclic AMP produced; TSH 3 ng/mL [3]: 117 pmol/mL
- Cyclic AMP produced; TSH (2) 3 ng/mL, run at the end of assay [3]: 93.4 pmol/mL
- Mutated/wild type (%) of cyclic AMP produced; TSH 3 ng/mL [3]: 137%
- Cyclic AMP produced at 0.01 ng/mL TSH [4]: 7.16 pmol/mL
- Cyclic AMP produced at 0.03 ng/mL TSH [4]: 10 pmol/mL
- Cyclic AMP produced at 0.1 ng/mL TSH [4]: 17.2 pmol/mL
- Cyclic AMP produced at 0.3 ng/mL TSH [4]: 45.9 pmol/mL
- Cyclic AMP produced at 1 ng/mL TSH [4]: 75.2 pmol/mL
- Cyclic AMP produced at 3 ng/mL TSH [4]: 83.7 pmol/mL
- Mutated/Wild type (%) of cyclic AMP at 0.01 ng/mL TSH [4]: 230%
- Mutated/Wild type (%) of cyclic AMP at 0.03 ng/mL TSH [4]: 226%
- Mutated/Wild type (%) of cyclic AMP at 0.1 ng/mL TSH [4]: 171%
- Mutated/Wild type (%) of cyclic AMP at 0.3 ng/mL TSH [4]: 111%
- Mutated/Wild type (%) of cyclic AMP at 1 ng/mL TSH [4]: 101%
- Mutated/Wild type (%) of cyclic AMP at 3 ng/mL TSH [4]: 88%
- % inhibition of TSH stimulation; TSH (2), run at the end of assay [5]: 0%
- % inhibition of TSH stimulation; TSH (2), run at the end of assay, no antibody; Experiment 1 [5]: 0%
- % inhibition of TSH stimulation; TSH (2), run at the end of assay, no antibody; Experiment 2 [5]: 12%
- % inhibition of TSH stimulation; TSH (2), run at the end of assay; Exp 1 [5]: 0%
- % inhibition of TSH stimulation; TSH (2), run at the end of assay; Exp 2 [5]: 0%
- Cyclic AMP produced at 0.01 ng/mL TSH [5]: 3.11 pmol/mL
- Cyclic AMP produced at 0.03 ng/mL TSH [5]: 4.43 pmol/mL
- Cyclic AMP produced at 0.1 ng/mL TSH [5]: 10.1 pmol/mL
- Cyclic AMP produced at 0.3 ng/mL TSH [5]: 41.2 pmol/mL
- Cyclic AMP produced at 1 ng/mL TSH [5]: 74.5 pmol/mL
- Cyclic AMP produced at 3 ng/mL TSH [5]: 95.3 pmol/mL
- Cyclic AMP produced; TSH 3 ng/mL [5]: 85.8 pmol/mL
- Cyclic AMP produced; TSH 3 ng/mL alone; Experiment 1 [5]: 77.9 pmol/mL
- Cyclic AMP produced; TSH 3 ng/mL alone; Experiment 2 [5]: 86.5 pmol/mL
- Cyclic AMP produced; TSH 3 ng/mL; Exp 1 [5]: 52.9 pmol/mL
- Cyclic AMP produced; TSH 3 ng/mL; Exp 2 [5]: 87.2 pmol/mL
- Cyclic AMP produced; TSH (2) 3 ng/mL, run at the end of assay [5]: 97.8 pmol/mL
- Cyclic AMP produced; TSH (2) 3 ng/mL, run at the end of assay; Exp 1 [5]: 77.2 pmol/mL
- Cyclic AMP produced; TSH (2) 3 ng/mL, run at the end of assay; Exp 2 [5]: 88.1 pmol/mL
- Cyclic AMP produced; TSH (2) 3 ng/mL, run at the end of assay; Experiment 1 [5]: 84.5 pmol/mL
- Cyclic AMP produced; TSH (2) 3 ng/mL, run at the end of assay; Experiment 2 [5]: 75.9 pmol/mL
- % inhibition of TSH stimulation, Exp 1: TSH (2) [6]: 18%
- % inhibition of TSH stimulation, Exp 2: TSH (2) [6]: 23%
- Cyclic AMP, Mutated/wild type (%), Exp 1: TSH 3 ng/mL [6]: 124%
- Cyclic AMP, Mutated/wild type (%), Exp 1: TSH (2) [6]: 74%
- Cyclic AMP, Mutated/wild type (%), Exp 2: TSH 3 ng/mL [6]: 128%
- % inhibition of TSH stimulation; TSH (2), run at the end of assay, no antibody; Experiment 1 [7]: 10%
- % inhibition of TSH stimulation; TSH (2), run at the end of assay, no antibody; Experiment 2 [7]: 7%
- Cyclic AMP produced; TSH 3 ng/mL alone; Experiment 1 [7]: 64.7 pmol/mL
- Cyclic AMP produced; TSH 3 ng/mL alone; Experiment 2 [7]: 55 pmol/mL
- Cyclic AMP produced; TSH (2) 3 ng/mL, run at the end of assay; Experiment 1 [7]: 58.3 pmol/mL
- Cyclic AMP produced; TSH (2) 3 ng/mL, run at the end of assay; Experiment 2 [7]: 51.1 pmol/mL
- Mutated/wild type (%) of cyclic AMP produced; TSH 3 ng/mL alone; Experiment 1 [7]: 83%
- Mutated/wild type (%) of cyclic AMP produced; TSH 3 ng/mL alone; Experiment 2 [7]: 64%
- % inhibition of TSH stimulation; TSH (2), run at the end of assay [8]: 7%
- Cyclic AMP produced; TSH 3 ng/mL [8]: 63.9 pmol/mL
- Cyclic AMP produced; TSH (2) 3 ng/mL, run at the end of assay [8]: 59.6 pmol/mL
- Mutated/wild type (%) of cyclic AMP produced; TSH 3 ng/mL [8]: 102%
- Mutated/wild type (%) of cyclic AMP produced; TSH (2) 3 ng/mL, run at the end of assay [8]: 87%
- % inhibition of TSH stimulation, Exp 1: TSH (2) [9]: 0%
- % inhibition of TSH stimulation, Exp 2: TSH (2) [9]: 0%
- % inhibition of TSH stimulation: TSH (2) [9]: 0%
- % inhibition of TSH stimulation; TSH (2), run at the end of assay [9]: 0%
- Cyclic AMP produced; TSH 3 ng/mL [9]: 62.4 pmol/mL
- Cyclic AMP produced; TSH (2) 3 ng/mL, run at the end of assay [9]: 68.4 pmol/mL
- % inhibition of TSH stimulation: TSH (2) [10]: 0%
- Cyclic AMP, Mutated/wild type (%): TSH 3 ng/mL [10]: 76%
- Cyclic AMP, Mutated/wild type (%): TSH (2) [10]: 87%
- % inhibition of TSH stimulation; TSH (2), run at the end of assay; Exp 1 [11]: 12%
- % inhibition of TSH stimulation; TSH (2), run at the end of assay; Exp 2 [11]: 5%
- Cyclic AMP produced; TSH 3 ng/mL; Exp 1 [11]: 56.6 pmol/mL
- Cyclic AMP produced; TSH 3 ng/mL; Exp 2 [11]: 46.2 pmol/mL
- Cyclic AMP produced; TSH (2) 3 ng/mL, run at the end of assay; Exp 1 [11]: 50.1 pmol/mL
- Cyclic AMP produced; TSH (2) 3 ng/mL, run at the end of assay; Exp 2 [11]: 44.1 pmol/mL
- Mutated/wild type (%) of cyclic AMP produced; TSH 3 ng/mL; Exp 1 [11]: 107%
- Mutated/wild type (%) of cyclic AMP produced; TSH 3 ng/mL; Exp 2 [11]: 53%
- Mutated/wild type (%) of cyclic AMP produced; TSH (2) 3 ng/mL, run at the end of assay; Exp 1 [11]: 65%
- Mutated/wild type (%) of cyclic AMP produced; TSH (2) 3 ng/mL, run at the end of assay; Exp 2 [11]: 50%
- % inhibition of TSH stimulation; TSH (2), run at the end of assay [12]: 20%
- Cyclic AMP produced; TSH 3 ng/mL [12]: 59.9 pmol/mL
- Cyclic AMP produced; TSH (2) 3 ng/mL, run at the end of assay [12]: 47.8 pmol/mL
- Mutated/wild type (%) of cyclic AMP produced; TSH 3 ng/mL [12]: 102%
- Cyclic AMP produced; TSH 3 ng/mL [13]: 58.8 pmol/mL
- Cyclic AMP produced; TSH (2) 3 ng/mL, run at the end of assay [13]: 69.6 pmol/mL
- Cyclic AMP produced at 0.01 ng/mL TSH [14]: 1.01 pmol/mL
- Cyclic AMP produced at 0.03 ng/mL TSH [14]: 4.39 pmol/mL
- Cyclic AMP produced at 0.1 ng/mL TSH [14]: 9.67 pmol/mL
- Cyclic AMP produced at 0.3 ng/mL TSH [14]: 29.8 pmol/mL
- Cyclic AMP produced at 1 ng/mL TSH [14]: 53.3 pmol/mL
- Cyclic AMP produced at 3 ng/mL TSH [14]: 56.6 pmol/mL
- Cyclic AMP produced at 0.01 ng/mL TSH [15]: 2.6 pmol/mL
- Cyclic AMP produced at 0.03 ng/mL TSH [15]: 4.1 pmol/mL
- Cyclic AMP produced at 0.1 ng/mL TSH [15]: 9.64 pmol/mL
- Cyclic AMP produced at 0.3 ng/mL TSH [15]: 33.7 pmol/mL
- Cyclic AMP produced at 1 ng/mL TSH [15]: 50 pmol/mL
- Cyclic AMP produced at 3 ng/mL TSH [15]: 61.3 pmol/mL
- Mutated/Wild type (%) of cyclic AMP at 0.01 ng/mL TSH [15]: 257%
- Mutated/Wild type (%) of cyclic AMP at 0.03 ng/mL TSH [15]: 93%
- Mutated/Wild type (%) of cyclic AMP at 0.1 ng/mL TSH [15]: 100%
- Mutated/Wild type (%) of cyclic AMP at 0.3 ng/mL TSH [15]: 113%
- Mutated/Wild type (%) of cyclic AMP at 3 ng/mL TSH [15]: 108%
- Cyclic AMP produced at 0.01 ng/mL TSH [16]: 2 pmol/mL
- Cyclic AMP produced at 0.03 ng/mL TSH [16]: 3.68 pmol/mL
- Cyclic AMP produced at 0.1 ng/mL TSH [16]: 9.1 pmol/mL
- Cyclic AMP produced at 0.3 ng/mL TSH [16]: 22.2 pmol/mL
- Cyclic AMP produced at 1 ng/mL TSH [16]: 57.5 pmol/mL
- Cyclic AMP produced at 3 ng/mL TSH [16]: 58.5 pmol/mL
- Cyclic AMP produced at 0.01 ng/mL TSH [17]: 4.06 pmol/mL
- Cyclic AMP produced at 0.03 ng/mL TSH [17]: 6.19 pmol/mL
- Cyclic AMP produced at 0.1 ng/mL TSH [17]: 13.3 pmol/mL
- Cyclic AMP produced at 0.3 ng/mL TSH [17]: 27.7 pmol/mL
- Cyclic AMP produced at 1 ng/mL TSH [17]: 54.5 pmol/mL
- Cyclic AMP produced at 3 ng/mL TSH [17]: 57 pmol/mL
- Mutated/Wild type (%) of cyclic AMP at 0.01 ng/mL TSH [17]: 203%
- Mutated/Wild type (%) of cyclic AMP at 0.03 ng/mL TSH [17]: 168%
- Mutated/Wild type (%) of cyclic AMP at 0.1 ng/mL TSH [17]: 146%
- Mutated/Wild type (%) of cyclic AMP at 0.3 ng/mL TSH [17]: 125%
- % inhibition of TSH stimulation; TSH (2), run at the end of assay, no antibody [18]: 0%
- Cyclic AMP produced; TSH 3 ng/mL alone [18]: 97.5 pmol/mL
- Cyclic AMP produced; TSH (2) 3 ng/mL, run at the end of assay [18]: 104 pmol/mL
- % inhibition of TSH stimulation; TSH (2), run at the end of assay, no antibody [19]: 0%
- Cyclic AMP produced; TSH 3 ng/mL alone [19]: 76.1 pmol/mL
- Cyclic AMP produced; TSH (2) 3 ng/mL, run at the end of assay [19]: 87.4 pmol/mL
- Mutated/wild type (%) of cyclic AMP produced; TSH 3 ng/mL alone [19]: 78%
- Mutated/wild type (%) of cyclic AMP produced; TSH (2) 3 ng/mL, run at the end of assay [19]: 84%
Substance: TSH (thyroid stimulating hormone) (ligand)

Reference: US20110300138A1 (published 2011)
